# Data as given in the Immune Epitope Database (IEDB).
# Legend:
# HLA-A*32:01 = assay: IEDB peptide-MHC binding, purified MHC/competitive/radioactivity; filed as Kd, often an IC50 or EC50 that approximates it; ≥ and ≤ were set here for values at or beyond the usual limits of such assays
# HLA-B*08:01 = assay: as above
# HLA-A*30:01 = assay: as above
# HLA-B*15:03 = assay: as above
# HLA-B*15:01 = assay: as above
# HLA-B*35:01 = assay: as above
# HLA-B*51:01 = assay: as above; details: source organism: Dengue virus 4 Philippines/H241/1956
# HLA-B*53:01 = assay: as above; details: source organism: Dengue virus 4 Philippines/H241/1956
# HLA-B*07:02 = assay: as above
# HLA-A*02:01 [1] = assay: as above
# HLA-A*02:02 = assay: as above; details: source organism: Homo sapiens
# HLA-A*24:02 = assay: as above; details: source organism: Dengue virus 4 Philippines/H241/1956
# HLA-A*23:01 = assay: as above; details: source organism: Dengue virus 4 Philippines/H241/1956
# HLA-A*02:01 [2] = assay: IEDB peptide-MHC binding, purified MHC/competitive/fluorescence; filed as Kd, often an IC50 or EC50 that approximates it; ≥ and ≤ were set here for values at or beyond the usual limits of such assays; details: source organism: Salmonella enterica subsp. enterica serovar Typhi
# HLA-A*26:01 = assay: as above; details: source organism: Salmonella enterica subsp. enterica serovar Typhi
# HLA-A*01:01 = assay: IEDB peptide-MHC binding, purified MHC/competitive/radioactivity; filed as Kd, often an IC50 or EC50 that approximates it; ≥ and ≤ were set here for values at or beyond the usual limits of such assays
# [3] = source organism: Vaccinia virus WR
# [4] = source organism: Dengue virus 4 Philippines/H241/1956
# [5] = source organism: Vaccinia virus Copenhagen
# [6] = source organism: Dengue virus 1 Brazil/97-11/1997
# [7] = source organism: Dengue virus 3 Singapore/8120/1995
# [8] = source organism: Dengue virus 2 Jamaica/1409/1983
# [9] = source organism: Dengue virus 3 Martinique/1243/1999
sequence,measurement,setting,value
KGKAAAFAK,Kd,HLA-A*32:01; [3],≥ 56000 nM
same,Kd,HLA-B*08:01; [3],≥ 77700 nM
same,Kd,HLA-A*30:01; [3],3.12 nM
same,Kd,HLA-B*15:03; [3],1900 nM
same,Kd,HLA-B*15:01; [3],12000 nM
LPDYGELTL,Kd,HLA-B*35:01; [4],100 nM
same,Kd,HLA-B*51:01,1230 nM
same,Kd,HLA-B*53:01,77.1 nM
same,Kd,HLA-B*07:02; [4],67.8 nM
LLYMFPNLF,Kd,HLA-A*32:01; [3],89.7 nM
same,Kd,HLA-B*15:03; [3],0.109 nM
KSIEQHPVV,Kd,HLA-A*32:01; [3],1910 nM
same,Kd,HLA-B*08:01; [3],11700 nM
same,Kd,HLA-A*30:01; [3],2.7 nM
same,Kd,HLA-B*15:03; [3],79.6 nM
same,Kd,HLA-B*15:01; [3],70.5 nM
KSSPETQQM,Kd,HLA-A*32:01; [3],464 nM
same,Kd,HLA-B*08:01; [3],2350 nM
same,Kd,HLA-A*30:01; [3],1130 nM
same,Kd,HLA-B*15:03; [3],108 nM
same,Kd,HLA-B*15:01; [3],30.4 nM
EMIQLQEEL,Kd,HLA-A*02:01 [1]; source organism: Homo sapiens,3100 nM
same,Kd,HLA-A*02:02,123 nM
LLMRTTWAF,Kd,HLA-A*32:01; [4],1.69 nM
same,Kd,HLA-A*24:02,24.4 nM
same,Kd,HLA-A*23:01,75.4 nM
same,Kd,HLA-B*08:01; [4],54.7 nM
same,Kd,HLA-B*15:01; [4],1.08 nM
GLDVLTAKV,Kd,HLA-A*02:01 [1]; source organism: Homo sapiens,132 nM
FLVIAINAM,Kd,HLA-B*15:03; [3],440 nM
FPTSRTTWSI,Kd,HLA-B*35:01; [4],327 nM
same,Kd,HLA-B*51:01,184 nM
same,Kd,HLA-B*53:01,16.4 nM
same,Kd,HLA-B*07:02; [4],55.5 nM
HVAAFSSLI,Kd,HLA-A*02:01 [2],61.3 nM
same,Kd,HLA-A*26:01,57.5 nM
FARDNQISF,Kd,HLA-B*15:03; [3],0.195 nM
WKVLSIMAF,Kd,HLA-B*15:03; [5],9.29 nM
NATDTWVTY,Kd,HLA-B*35:01; [6],20.9 nM
same,Kd,HLA-A*01:01; [6],144 nM
FLFLNINHY,Kd,HLA-B*15:03; [3],6.46 nM
QLIPCMDVV,Kd,HLA-A*02:01 [1]; source organism: Triticum aestivum,147 nM
RPMPGTRKVM,Kd,HLA-B*35:01; [7],8170 nM
same,Kd,HLA-B*07:02; [7],1.13 nM
ALYGSVPVL,Kd,HLA-A*02:01 [1]; source organism: Homo sapiens,8.1 nM
IMSLFSTSA,Kd,HLA-B*15:03; [3],7.67 nM
VIIMAINVF,Kd,HLA-B*15:03; [3],2030 nM
same,Kd,HLA-B*15:01; [3],26.4 nM
RRLLKFRVE,Kd,HLA-A*32:01; [5],≥ 34900 nM
same,Kd,HLA-B*08:01; [5],128 nM
same,Kd,HLA-A*30:01; [5],1040 nM
same,Kd,HLA-B*15:03; [5],14900 nM
same,Kd,HLA-B*15:01; [5],≥ 55000 nM
FIRYRMHPM,Kd,HLA-A*32:01; [3],14300 nM
same,Kd,HLA-B*08:01; [3],0.208 nM
same,Kd,HLA-A*30:01; [3],2790 nM
same,Kd,HLA-B*15:03; [3],21.6 nM
same,Kd,HLA-B*15:01; [3],1.22 nM
IVIGVGDSAL,Kd,HLA-B*15:01; [4],27.8 nM
SDTRSVNSF,Kd,HLA-B*15:03; [5],92.7 nM
LESQHIISF,Kd,HLA-B*15:03; [5],28.4 nM
same,Kd,HLA-B*15:01; [5],57.1 nM
TVIDLDPIPY,Kd,HLA-A*01:01; [8],1540 nM
same,Kd,HLA-B*15:01; [8],1.83 nM
DPASIAARGY,Kd,HLA-B*35:01; [8],5620 nM
SIIVLFQRF,Kd,HLA-B*08:01; [3],8550 nM
same,Kd,HLA-B*15:01; [3],1.09 nM
RPTPTGTVM,Kd,HLA-B*35:01; [9],1430 nM
same,Kd,HLA-B*07:02; [9],1.98 nM
